Results taken from the nanobody polyreactivity screen of Harvey et al. (2022).

experiment: yeast display, Sf9 membrane polyspecificity reagent, FACS + sequencing; frameworks hold sequencing errors
Outline: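 Nanobodies from a synthetic yeast display library (Saccharomyces cerevisiae BJ5465), induced 36–48 hours with galactose, were stained 1 hour at 4 °C with 10% biotinylated, detergent-solubilized Sf9 membrane reagent, enriched on streptavidin microbeads, then FACS-sorted. Anti-HA (expression) and streptavidin (reagent binding) fluorescence set low and high (top ~1%) gates. Polyreactivity labels come from the gate of origin. Genes were colony-PCR amplified, MiSeq 2 × 250 sequenced and filtered by CDR length.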

Sequence	polyreactivity (PSR sort gate)
QVQLVESGGGLVQAGGSLRLTCAASGSTFNRYAMGWYRQAPGKERELVAAITSTGGTNYADSVKGRFTISLDNAKNTVYLQMNSLKPEDTAFYYCAKRWLRWRSNYWGQGTQVTVSS	high polyreactivity
QVQLVESGGGLVQAGGSLRLTCAASGSTFQHYAMGWYRQAPGKEMELVAAITNTGGSTYYADSVKGRFTISRDNAKNTVYLQMNSLKPEDNAVYYCATVARRYGYPGYYWGQGTQVTVSS	low polyreactivity
QVQLVESGGGLVQAGGSLRLTCAASGSTFRGNTMGWSRQAPGKERELVAAISWDGGTTYYADSVKGRFTISRDNAKNTVYLQMNCLKPEDTAVYYCAADWTGQEYEYWGQGTQVTVSS	low polyreactivity
QVQLVESGGGLVQAGGSLRLTCAASGSTFTAYAMGWYRQAPGKERELVADISDSGGSTYYADSVKGRFTISRDNAKNTVYLQMNSLIPEDTAVYYCAVDVRAYVVSKFDSWGQGTQVTVSS	low polyreactivity
QVQLVESGGGLVQAGGSLRLTCAASGSTFWFYAMGWYRQAPGKERELVATITIGGRTYADSVKGRYTISRDNAKNTVYLQMNSLKPEDTAVYYCAARRVRLEYVYGRYDYWGQGTQVTVSS	low polyreactivity
QVQLVESGGGLVQAGGSLRLTCAASGSTFWYYAMGWYRQAPGKERELVASITYSGGSTYYADSVKGRFTISRDNAKNTVYLQMNSLKPEDTAVYYCAKDGVSPSLRAYAAGYDYWGQGTQVTVSS	low polyreactivity
QVQLVESGGGLVQAGGSLRLTCAASGSTFYSNAMGWYRQATGKERELVASIRFSGVITTYADSVKGRFTISRDNAKNTVYLQMNSLKPEDTAVYYCAAGYLSTTAYDYWGQGTQVTVSS	low polyreactivity
QVQLVESGGGLVQAGGSLRLTCAASGTIFYYNAMRWYRQAPGKERELVAAISWSGSRTYYADSVKGRFTISRDNAKITVYLQMNSLKPEDTAVYYCAAVVRFPFTYDYWGQGTQVTVSS	high polyreactivity
QVQLVESGGGLVQAGGSLRLTCAASGVTFRYYAMVWYRQAPGKERELVAAITGSGTRTYYADSVKGRFTISRDNAKNTLYLQMNSLKPEDTAVYYCNAPRQPRWFDYWGQGTQVTVSS	high polyreactivity
QVQLVESGGGLVQAGGSLRLTCAASRLTFDDNAMGWYRQAPGKERELVAAISYNGGSTYYADSVKGRFTISRDNAKNTVYLQMNSLKPEDTAVYYCAADISVGRYGDMDYWGQGTQVTVSS	low polyreactivity
QVQLVESGGGLVQAGGSLRLTCAASVSIFPHYTMGWYRPAPGKERELVDAISNYGSSTYYADSVKGRFTISRDNAKNTVYLQMNSLKPEDSEVYYCNADDYGYSPGVNYWGQGTQVTVSS	low polyreactivity
QVQLVESGGGLVQAGGSLRLTCAAYGRIFRGYAMGWYRQAPGKERDLVAAISGSGGSTYNADSVKGRFTISRDNAKNTVYLQMNSLKPEDTAVYYCNAGWYFYGETTDDYWGQGTQVTVSS	low polyreactivity
QVQLVESGGGLVQAGGSLRLTCAAYGRIYINTMGWYRQPPGKERELVAAITWSGGNTYYADSVKGRFTISRDNAKNTVYLQMNSLKPEDTAVYYWAVGGYLRSVSYIRLGNYYWGQGTQVTVSS	high polyreactivity
QVQLVESGGGLVQAGGSLRLTFAASGINLYDNVMGWYRTAPGKERELVAAISSSGTTKYYADSVKGRFTISRDYAKNTFYLQMNSLNPEDTAVYYCAADGITWYAIAYYYWGQGTQVTVSS	high polyreactivity
QVQLVESGGGLVQAGGSLRLTSAASGFTFPYTDMGWYRPAPGKERELVADISSGGSTYYADSVKGRFTISRDNAKINVYLQMISLKPEDTAVYYCAAREAYSIRIYQGFGYWGQGTQVTVSS	low polyreactivity
QVQLVESGGGLVQAGGSLRLTSAASGITFYGYAMGWYRQAPGKETELVAAISRSGSSTYYADSVKGRFTISRYNAKNTVYLQMNSLKPEVTAVYYCAARAWAQWGDYWGQGTQLTVSS	high polyreactivity
QVQLVESGGGLVQAGGSLRLTSAASGSIFPYNAMGWYRPAPGKDSELLARISWSGGSTYYADSVKGRFTISRDNAKNTVYLQMKSLKPEDTALYYGAATIIFDAQYRFYYWGQGTQVTVSS	low polyreactivity
QVQLVESGGGLVQAGGSLRLTSAASGSIFQPYAMGWYRQAPVKERELVASIRGSAGSTHYADSVKGRFTISRDNAKNTVYLQMNSLKPEDTAVYYCAARAVASHFSPRLYGYWGQGTQVTVSS	high polyreactivity
QVQLVESGGGLVQAGGSLRLTSAGSGGILPKNAMGWSRQAPGKERELVADISTRGTSTYYADSVKGRFTISRDIAKNTVYLQMNSVKPEVTAVYYCANCRDYIGYDYWGQGSQVTVSS	low polyreactivity
QVQLVESGGGLVQAGGSLRVSCAASGFTFALYAMGWYRQAPGKERELVAAISWSGGTTYYADSVKGRFTISRDNEKNTVDLQMNSLNPEDTAVYYCNAYTRSRGYDYWGQGTQVTVSS	high polyreactivity
QVQLVESGGGLVQAGGSLRVSCAASGFTFGSYAMGWYRQSPGKERELVAVITRSGRTNYADSVKGRFTISRDNAKNTVYLQMNSLKPEDTAVYYCNADDVDDEVSPDLTEMDYWGQGTQVTVSS	low polyreactivity
